This sample holds only a part of the variants without activity.
B1: TPR 5TU (parent)
chain: GGAUCUUCUCGAUCUAACAAAAAAGACAAAUCUGCCACAAAGCUUGAGAGCAUCUUCGGAUGCAGAGGCGGCAGCCUUCGGUGGCGCGAUAGCGCCAACGUUCUCAACUAUGACACGCAAAACGCGUGCUCCGUUGAAUGGAGUUUAUCAUG

Variants of: B1
Assay: polymerase ribozyme fitness, log enrichment relative to wild type (log ratio); higher = more active; in vitro selection for triplet polymerase activity
Outline: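 Mutant libraries of each subunit of a heterodimeric triplet polymerase ribozyme were built by PCR and transcribed. Each library went through one round of in vitro selection in triplicate: annealing with biotinylated primer, partner subunit and triplets, frozen incubation at −7 °C, gel excision of extended constructs, streptavidin-bead capture and RT-PCR. Input and output libraries were Illumina-sequenced; only genotypes with ≥10 input reads and ≥1 read per output were kept. Fitness is log2(genotype enrichment/wild-type enrichment), using inverse-variance-weighted replicate averages.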

Row | Variant | polymerase ribozyme fitness (log ratio)
1 | A3G U31G G50A C95G C118G A138C U146A G152U | ≤ -4.2
2 | A3G U13G U144C | 0.104
3 | A3C C10A G11U U55A G81C C85U G128A | ≤ -4.2
4 | A3G G50C A120G C129A | ≤ -4.2
5 | A3U C10U U61A G65A A66C | ≤ -4.2
6 | A3U C87G A113C | -4.19
7 | A3U A29C U61C | ≤ -4.2
8 | A3U A17C G94C | -0.825
9 | A3G A20C A29U A41G C54U C87U C95U U135G | ≤ -4.2
10 | A3G C27U C51A G59A C85U G88A A115U G141A | ≤ -4.2
11 | A3G A26U C72U | ≤ -4.2
12 | A3C C36U G83A | -3.09
13 | A3G C27U G86A | -3.94
14 | A3C U31G C51U A60C A122C G140A | ≤ -4.2
15 | A3G A23C C75A G88A C99G C108U G143C | ≤ -4.2
16 | A3U A26G U61A G92A | ≤ -4.2
17 | A3C A16G C99G U102G A106U | ≤ -4.2
18 | A3C G46C A49G G92A U104G A113U G124A A142U | ≤ -4.2
19 | A3C A21C C35A C85U C125U | ≤ -4.2
20 | A3U C51U U56G G58C G59A A73G | -3.64
21 | A3U A20C A26U C57G C108U | ≤ -4.2

Row | Variant | polymerase ribozyme fitness (log ratio)
22 | A3U A19U C57U G62U C69U C85U C99G U130C G136U U146G | ≤ -4.2
23 | A3C C43U A89U G92A C125G | ≤ -4.2
24 | A3C A16U C54A C87U U104G G141C | ≤ -4.2
25 | A3C A16G | -1.12
26 | A3C C18U A49U G62C A66C G67U C96A C99G U134C U145C A147C U151G | ≤ -4.2
27 | A3G A17U C85A A106G A107U C118G U134A A142G C149U | ≤ -4.2
28 | A3G A17U A60U | -1.21
29 | A3U A47C C105U A120C G124A | -1.78
30 | A3C C10G A49C C54U A60U A91C G100A G136U U139C | ≤ -4.2
31 | A3U C5A A30U A39U A49U C99U G124A | ≤ -4.2
32 | A3G A12G A29G C38U G42C G86U A138C | ≤ -4.2
33 | A3C G88C | -4.14
34 | A3U A22C C87A G92U | -0.18
35 | A3G U4A C54U U102G C125G | -3.99
36 | A3G C27U U55A U90C G94U C114G C116A | ≤ -4.2
37 | A3C A49C C96A | ≤ -4.2
38 | A3U A52G C96G C131U | -0.0465
39 | A3G A41U A47G U101G G136U | ≤ -4.2
40 | A3C U90A | -4.17
41 | A3C A12G G25C A52C C93U C116A | -3.91
42 | A3U C54U | -1.57

Row | Variant | polymerase ribozyme fitness (log ratio)
43 | A3U C57U | 0.223
44 | A3U C57A | -0.997
45 | A3G C14U G42C G59A C96U A122U U146C | ≤ -4.2
46 | A3U C35A C43A A52G G88A C108G | ≤ -4.2
47 | A3C A23U U44A U45C C95U C105G A106C C123U A137G | ≤ -4.2
48 | A3C C43U U53A U61G U101G U139A | ≤ -4.2
49 | A3U A49U U55C A91U | ≤ -4.2
50 | A3G G50C C76A A115U C131G | ≤ -4.2
51 | A3G C8G A30G G48C A64C C87G A137G | ≤ -4.2
52 | A3G A29G A39G G86U C99G | ≤ -4.2
53 | A3C A52C U55A C57A G81A G94C | -4.03
54 | A3U C87G | -3.94
55 | A3U C87U | -0.956
56 | A3C C36G A60C G83U C118G U151C | ≤ -4.2
57 | A3U C85A | -1.48
58 | A3G A19U U55C G84A | -0.956
59 | A3U C38A C87U C95U G128C | ≤ -4.2
60 | A3G A39U G59C G83U | -3.56
61 | A3C U13G A23U C87U A91U C96U | ≤ -4.2
62 | A3U C114U C118G A137C G141C | ≤ -4.2
63 | A3G A91U | ≤ -4.2

Row | Variant | polymerase ribozyme fitness (log ratio)
64 | A3G A29G U82A | ≤ -4.2
65 | A3C G34A C96G | -3.63
66 | A3G U6A A39U G84U U134A U144C A150U | ≤ -4.2
67 | A3G A16G A24C A49G G80C | ≤ -4.2
68 | A3U C14G G50C C85U G88A | ≤ -4.2
69 | A3G G11A C32U C85G C87A G124U | ≤ -4.2
70 | A3G U4G C32U U56A G74A G81A A120G | -0.184
71 | A3G U13A U56A C96A A138G | ≤ -4.2
72 | A3U A16U C54U U55A C85U A98C C99U C129G G152U | ≤ -4.2
73 | A3U A28C G84A G117U A119U G124U | ≤ -4.2
74 | A3G A20U C27G G42A U56A U77G G86A G117U G133C | ≤ -4.2
75 | A3U A29G A49C G92A G124U G140A | ≤ -4.2
76 | A3G C5G U15C G84U C108U A121U | ≤ -4.2
77 | A3C G58A C87U | -0.495
78 | A3U A17U U56A G83U C93G C96G C125G G136C | ≤ -4.2
79 | A3C A24G A73U C93A | ≤ -4.2
80 | A3G C36G U77C | ≤ -4.2
81 | A3G C14G U61G G71A G86C A91C C105G C114G G143A U145A | ≤ -4.2
82 | A3U C35U C54A C85G | ≤ -4.2
83 | A3U A30G C35G A39U G59A A60C C87U U134A | ≤ -4.2
